Reference: the RNAGym collection of RNA variant scans (doi:10.7554/elife.80360)

B1: CPEB3 Ribozyme (parent)
chain: GGGGGCCACAGCAGAAGCGUUCACGUCGCGGCCCCUGUCAGAUUCUGGUGAAUCUGCGAAUUCUGCUGU

Variants of: B1
Test: self-cleavage, relative activity (ratio to wild type); higher = more cleavage; co-transcriptional

First: AGGGGCGACAGCAGAAGCGUUCACGUCGCGGCCCCUGUCAGAUUCUGGUGAAUCUGCGAAUUCUGCUGU
Second: AGGGGCCACAGCAGAAGCGUUCACGUCGCGGUCCCUGUCAGAUUCUGGUGAAUCUGCGAAUUCUGCUGU
The self-cleavage of the first is lower: 0.0966 for the first, 0.12 for the second.

First: AGGGGCCACAGCAGAAGCGUUCACGUCGCGGGCCCUGUCAGAUUCUGGUGAAUCUGCGAAUUCUGCUGU
Second: AGGGGCCACAGCAGAAGCGUUCACGUCGCGGACCCUGUCAGAUUCUGGUGAAUCUGCGAAUUCUGCUGU
The self-cleavage of the first is lower: 0.0331 for the first, 0.0486 for the second.

First: AGGGGCCACAGCAGAAGCGUUCACGUCGCGGCCCCUGUCAGAUUCUGGUGAAUCUGAGAAUUCUGCUGU
Second: AGGGGCCACAGCAGAAGCGUUCACGUCGCGGCCCCUGUCAGAUUCUGGUGAAUCUGGGAAUUCUGCUGU
The self-cleavage of the first is lower: 0.0488 for the first, 0.0693 for the second.

First: AGGGGCCACAGCAGAAGCGUUCACGUCGCGGCCCCUGUCAGAUUCUGGUGAAUCUGUGAAUUCUGCUGU
Second: AGGGGCCAAAGCAGAAGCGUUCACGUCGCGGCCCCUGUCAGAUUCUGGUGAAUCUGCGAAUUCUGCUGU
The self-cleavage of the first is lower: 0.0557 for the first, 0.145 for the second.

First: AGGGGCCAGAGCAGAAGCGUUCACGUCGCGGCCCCUGUCAGAUUCUGGUGAAUCUGCGAAUUCUGCUGU
Second: AGGGGCCAUAGCAGAAGCGUUCACGUCGCGGCCCCUGUCAGAUUCUGGUGAAUCUGCGAAUUCUGCUGU
The self-cleavage of the first is lower: 0.0894 for the first, 0.19 for the second.

Going from AGGGGCCACAGCAGGAGCGUUCACGUCGCGGCCCCUGUCAGAUUCUGGUGAAUCUGCGAAUUCUGCUGU to AGGGGCCACAGCAGCAGCGUUCACGUCGCGGCCCCUGUCAGAUUCUGGUGAAUCUGCGAAUUCUGCUGU, the self-cleavage falls from 0.159 to 0.113.

Compared with AGGGGCCACAGCAGUAGCGUUCACGUCGCGGCCCCUGUCAGAUUCUGGUGAAUCUGCGAAUUCUGCUGU, AGGGGCCACAGCAGAAGCGUUCACGUCCCGGCCCCUGUCAGAUUCUGGUGAAUCUGCGAAUUCUGCUGU is lower in self-cleavage: 0.105 for the first, 0.0192 for the second.

Compared with AGGGGCCACAGCAGAAGCGUUCACGUCGCGGCCCCUGUCAGAUUCUGGUGAAUCUGCGAAUUCUGCUGU, AGGGGCCACAGCAGAAGCGUUCACGUCGCGGCCCCUGUCAGAUUCUGGUGUAUCUGCGAAUUCUGCUGU is higher in self-cleavage: 0.104 for the first, 0.136 for the second.

Compared with AGGGGCCACAGCAGAAGCGUUCACGUCGCGGCCCCUGUCAGAUUUUGGUGAAUCUGCGAAUUCUGCUGU, AGGGGCCACAGCAGAAGCGUUCACGUCGCGGCCCCUGUCAGAUUGUGGUGAAUCUGCGAAUUCUGCUGU is higher in self-cleavage: 0.0709 for the first, 0.0789 for the second.

Compared with AGGGGCCACAGCAGAAGAGUUCACGUCGCGGCCCCUGUCAGAUUCUGGUGAAUCUGCGAAUUCUGCUGU, AGGGGCCACAGCAGAAGGGUUCACGUCGCGGCCCCUGUCAGAUUCUGGUGAAUCUGCGAAUUCUGCUGU is higher in self-cleavage: 0.0308 for the first, 0.0371 for the second.

Going from AGGGGCCACAGCAGAAGUGUUCACGUCGCGGCCCCUGUCAGAUUCUGGUGAAUCUGCGAAUUCUGCUGU to AGGGGCCACAGCAGAAGCGUUCACGUCGCGGCCCCUGUCCGAUUCUGGUGAAUCUGCGAAUUCUGCUGU, the self-cleavage falls from 0.0601 to 0.028.

First: AGGGGCCACAGCAGAAGCGUUCACGUCGCGGCCCCUGUCUGAUUCUGGUGAAUCUGCGAAUUCUGCUGU
Second: AGGGGCCACAGCAGAGGCGUUCACGUCGCGGCCCCUGUCAGAUUCUGGUGAAUCUGCGAAUUCUGCUGU
The self-cleavage of the first is higher: 0.0506 for the first, 0.0235 for the second.

First: AGGGGCCACAUCAGAAGCGUUCACGUCGCGGCCCCUGUCAGAUUCUGGUGAAUCUGCGAAUUCUGCUGU
Second: AGGGGCCACAACAGAAGCGUUCACGUCGCGGCCCCUGUCAGAUUCUGGUGAAUCUGCGAAUUCUGCUGU
The self-cleavage of the first is lower: 0.0575 for the first, 0.136 for the second.

Compared with AGGGGCCACAGCCGAAGCGUUCACGUCGCGGCCCCUGUCAGAUUCUGGUGAAUCUGCGAAUUCUGCUGU, AGGGGCCACAGCGGAAGCGUUCACGUCGCGGCCCCUGUCAGAUUCUGGUGAAUCUGCGAAUUCUGCUGU is lower in self-cleavage: 0.0638 for the first, 0.0336 for the second.

Compared with AGGGGCCACAGCUGAAGCGUUCACGUCGCGGCCCCUGUCAGAUUCUGGUGAAUCUGCGAAUUCUGCUGU, AGGGGCCACAGCAGAAGCGUUCACGUCGCGGCCCCUGUCAGAUUCUGGUGAAUCUGCGAAUUCUGGUGU is higher in self-cleavage: 0.0681 for the first, 0.0767 for the second.

Compared with AGGGGCCACAGCAGAAGCGUUCACGUCGCGGCCCCUGUUAGAUUCUGGUGAAUCUGCGAAUUCUGCUGU, AGGGGCCACAGCAGAAGCGUUCACGUCGGGGCCCCUGUCAGAUUCUGGUGAAUCUGCGAAUUCUGCUGU is lower in self-cleavage: 0.0531 for the first, 0.0465 for the second.

Going from AGGGGCCACAGCAGAAGCGUUCACGUCGUGGCCCCUGUCAGAUUCUGGUGAAUCUGCGAAUUCUGCUGU to AGGGGCCACAGCAGAAGCGUUCACGUCGCGGCCCCUGUCAGAUUCUGGUGAAUCUGCGACUUCUGCUGU, the self-cleavage falls from 0.0423 to 0.0326.

Compared with AGGGGCCACAGCAGAAGCGUUCACGUCGCGGCCCCUGUCAGAUUCUGGUGAAUAUGCGAAUUCUGCUGU, AGGGGCCACAGCAGAAGCGUUCACGUCGCGGCCCCUGUCAGAUUCUGGUGAAUGUGCGAAUUCUGCUGU is lower in self-cleavage: 0.0906 for the first, 0.0801 for the second.

First: AGGCGCCACAGCAGAAGCGUUCACGUCGCGGCCCCUGUCAGAUUCUGGUGAAUCUGCGAAUUCUGCUGU
Second: AGGAGCCACAGCAGAAGCGUUCACGUCGCGGCCCCUGUCAGAUUCUGGUGAAUCUGCGAAUUCUGCUGU
The self-cleavage of the first is lower: 0.0471 for the first, 0.28 for the second.

Going from AGGGGCCACAGCAGAAGCGUUCACGUCGCGGCCCCUGUCAGAUUCUGGUGAAUCUGCGUAUUCUGCUGU to AGGGGCCACAGCAGAAGCGUUCACGUCGCGGCCCCUGUCAGAUUCUGGUGAAUCUGCGCAUUCUGCUGU, the self-cleavage falls from 0.0722 to 0.0603.

Compared with AGGGGCCACAGCAGAAGCGUUCACGUCGCGGCCCCUGUCAGAUUCUGGUGAAUCUGCGGAUUCUGCUGU, AGGGGCCACAGGAGAAGCGUUCACGUCGCGGCCCCUGUCAGAUUCUGGUGAAUCUGCGAAUUCUGCUGU is lower in self-cleavage: 0.167 for the first, 0.0843 for the second.

Going from AGGGGCCACAGAAGAAGCGUUCACGUCGCGGCCCCUGUCAGAUUCUGGUGAAUCUGCGAAUUCUGCUGU to AGGGGCCACAGCAGAAGCGUUCUCGUCGCGGCCCCUGUCAGAUUCUGGUGAAUCUGCGAAUUCUGCUGU, the self-cleavage rises from 0.0768 to 0.184.

Going from AGGGGGCACAGCAGAAGCGUUCACGUCGCGGCCCCUGUCAGAUUCUGGUGAAUCUGCGAAUUCUGCUGU to AGGGGACACAGCAGAAGCGUUCACGUCGCGGCCCCUGUCAGAUUCUGGUGAAUCUGCGAAUUCUGCUGU, the self-cleavage rises from 0.0647 to 0.0849.

First: AGGGGUCACAGCAGAAGCGUUCACGUCGCGGCCCCUGUCAGAUUCUGGUGAAUCUGCGAAUUCUGCUGU
Second: AGGGGCCACAGCAGAAGCGUUCACGUCGCGGCCGCUGUCAGAUUCUGGUGAAUCUGCGAAUUCUGCUGU
The self-cleavage of the first is higher: 0.105 for the first, 0.0238 for the second.

Going from AGGGGCCACAGCAGAAGCGUUCACGUCGCGGCCACUGUCAGAUUCUGGUGAAUCUGCGAAUUCUGCUGU to AGGGGCCACAGCAGAAGCGUUCACGUCGCGGCCUCUGUCAGAUUCUGGUGAAUCUGCGAAUUCUGCUGU, the self-cleavage falls from 0.111 to 0.0949.

Going from AGGGGCCACAGCAGAAGCGUUCACGUCGCGGCUCCUGUCAGAUUCUGGUGAAUCUGCGAAUUCUGCUGU to AGGGGCCACAGCAGAAGCGUUCACGUCGCGGCGCCUGUCAGAUUCUGGUGAAUCUGCGAAUUCUGCUGU, the self-cleavage rises from 0.0123 to 0.0474.

Going from AGGGGCCACAGCAGAAGCGUUCACGUCGCGGCCCCUGUCAGAUUCUGGUGAUUCUGCGAAUUCUGCUGU to AGGGGCCACAGCAGAAGCGUUCACGUCGCGGCCCCUGUCAGAUUCUGGUGAGUCUGCGAAUUCUGCUGU, the self-cleavage rises from 0.0595 to 0.0619.

Compared with AGGGGCCACAGCAGAAGCGUUCACGUCGCGGCCCCUGUCAGAUUCUGGUGACUCUGCGAAUUCUGCUGU, AGCGGCCACAGCAGAAGCGUUCACGUCGCGGCCCCUGUCAGAUUCUGGUGAAUCUGCGAAUUCUGCUGU is lower in self-cleavage: 0.113 for the first, 0.0286 for the second.

Compared with AGGGGCCACAGCACAAGCGUUCACGUCGCGGCCCCUGUCAGAUUCUGGUGAAUCUGCGAAUUCUGCUGU, AGGGGCCACAGCAAAAGCGUUCACGUCGCGGCCCCUGUCAGAUUCUGGUGAAUCUGCGAAUUCUGCUGU is higher in self-cleavage: 0.0574 for the first, 0.0754 for the second.

Compared with AGGGGCCACAGCAGAAGCGUUCACCUCGCGGCCCCUGUCAGAUUCUGGUGAAUCUGCGAAUUCUGCUGU, AGGGUCCACAGCAGAAGCGUUCACGUCGCGGCCCCUGUCAGAUUCUGGUGAAUCUGCGAAUUCUGCUGU is lower in self-cleavage: 0.0807 for the first, 0.0571 for the second.

Compared with AGGGACCACAGCAGAAGCGUUCACGUCGCGGCCCCUGUCAGAUUCUGGUGAAUCUGCGAAUUCUGCUGU, AGGGCCCACAGCAGAAGCGUUCACGUCGCGGCCCCUGUCAGAUUCUGGUGAAUCUGCGAAUUCUGCUGU is lower in self-cleavage: 0.15 for the first, 0.0678 for the second.

Going from AGGGGCCACAGCAGAAGCGUUUACGUCGCGGCCCCUGUCAGAUUCUGGUGAAUCUGCGAAUUCUGCUGU to AGGGGCCACAGCAGAAGCGUUCACGUCGCGGCCCCUGUCAGAUUCUGGUGAAUCUGCGAAUUAUGCUGU, the self-cleavage rises from 0.0977 to 0.1.

First: AGGGGCCACAGCAGAAGCGUUCACGUCGCGGCCCCUGUCAGAUUCUGGUGAAUCUGCGAAUUUUGCUGU
Second: AGGGGCCACAGCAGAAGCGUUCACGUCGCGGCCCCUGUCAGAUUCUGGUGAAUCUGCGAAUUGUGCUGU
The self-cleavage of the first is higher: 0.0639 for the first, 0.0342 for the second.

Going from AGGGGCCACAGCAGAAGCGUUCACGUCGCGGCCCAUGUCAGAUUCUGGUGAAUCUGCGAAUUCUGCUGU to AGGGGCCACAGCAGAAGCGUUCACGUCGCGGCCCUUGUCAGAUUCUGGUGAAUCUGCGAAUUCUGCUGU, the self-cleavage rises from 0.0188 to 0.0752.

First: AGGGGCCACAGCAGAAGCGUUCACGUCGCGGCCCCUGUCAGGUUCUGGUGAAUCUGCGAAUUCUGCUGU
Second: AGGGGCCACAGCAGAAUCGUUCACGUCGCGGCCCCUGUCAGAUUCUGGUGAAUCUGCGAAUUCUGCUGU
The self-cleavage of the first is lower: 0.0249 for the first, 0.047 for the second.

Going from AGGGGCCACAGCAGAAACGUUCACGUCGCGGCCCCUGUCAGAUUCUGGUGAAUCUGCGAAUUCUGCUGU to AGGGGCCACAGCAGAAGCGUUCACGUAGCGGCCCCUGUCAGAUUCUGGUGAAUCUGCGAAUUCUGCUGU, the self-cleavage falls from 0.0759 to 0.0748.

First: AGGGGCCACAGCAGAAGCGUUCACGUUGCGGCCCCUGUCAGAUUCUGGUGAAUCUGCGAAUUCUGCUGU
Second: AGGGGCCUCAGCAGAAGCGUUCACGUCGCGGCCCCUGUCAGAUUCUGGUGAAUCUGCGAAUUCUGCUGU
The self-cleavage of the first is lower: 0.0438 for the first, 0.0637 for the second.

Going from AGGGGCCACAGCAGAAGCGUUCAUGUCGCGGCCCCUGUCAGAUUCUGGUGAAUCUGCGAAUUCUGCUGU to AGGGGCCACAGCAGAAGCGUUCAGGUCGCGGCCCCUGUCAGAUUCUGGUGAAUCUGCGAAUUCUGCUGU, the self-cleavage rises from 0.0626 to 0.163.

Compared with AGGGGCCACAGCAGAAGCGUUCAAGUCGCGGCCCCUGUCAGAUUCUGGUGAAUCUGCGAAUUCUGCUGU, AGGGGCCACCGCAGAAGCGUUCACGUCGCGGCCCCUGUCAGAUUCUGGUGAAUCUGCGAAUUCUGCUGU is higher in self-cleavage: 0.0536 for the first, 0.117 for the second.
